Results published in US20250057970A1, “TROP2 TARGETING ANTIBODY-DRUG CONJUGATE, AND PREPARATION METHOD AND USE THEREFOR” (priority 2020, published 2025).
Where two headings read alike, the source gives them in different places. Numbered stars: 1 amine (or outer) side, 2 acyl side, 3 side chain; on linkers, the order of the positions; unused ones are H or OH. Square brackets hold non-standard residues; d marks the D form. Peptide text beside a SMILES is read from it. * marks the point of attachment. Exatecan = CC[C@@]1(O)C(=O)OCc2c1cc1n(c2=O)Cc2c-1nc1cc(F)c(C)c3c1c2[C@@H](N*)CC3; Hexanoyl(6-maleimido) = O=C1C=CC(=O)N1CCCCCC(=O)*; NHCH2OCH2CO = O=C(COCN[*:1])[*:2]

Experiments:
cathepsin B = cathepsin B (Homo sapiens, UniProt P07858); conditions: for speed of enzyme digestion: pH range 5.0 to 7.0
Excerpt: Samples were taken at different time points and entered into a high-performance liquid chromatography-mass spectrometry instrument. The external standard method (with DXD as the external standard) was used to determine the release percentage of the drug.

NCI-N87 cell line = test: Killing activity on NCI-N87 before and after cathepsin B digestion; format: cell-based, human; conditions: NCI-N87, 144 hours, read-out: IC50 (based on SN-38 equivalent)
Experimental: NCI-N87 cell line was selected as the experimental cell lines. After the sample was incubated in cathepsin B system (100 mM sodium acetate-acetic acid buffer, 4 mM dithiothreitol, pH 5.0) at 37° C. for 4 hours, the obtained sample was diluted with culture medium to different concentrations. 8 concentrations (1.5 to 10-fold dilution) were set from 70 nM to 0.003 nM of SN-38 concentration. […] The IC50 value was calculated by reading the […] data after chemical luminescent staining with CellTiter-Glo® Luminescent Cell Viability Assay.

[1] = biological target: T1, Tumor-associated calcium signal transducer 2 (UniProt P09758 27-323, limits assumed); test: cell-based or functional assay
T1 sequence (looked up): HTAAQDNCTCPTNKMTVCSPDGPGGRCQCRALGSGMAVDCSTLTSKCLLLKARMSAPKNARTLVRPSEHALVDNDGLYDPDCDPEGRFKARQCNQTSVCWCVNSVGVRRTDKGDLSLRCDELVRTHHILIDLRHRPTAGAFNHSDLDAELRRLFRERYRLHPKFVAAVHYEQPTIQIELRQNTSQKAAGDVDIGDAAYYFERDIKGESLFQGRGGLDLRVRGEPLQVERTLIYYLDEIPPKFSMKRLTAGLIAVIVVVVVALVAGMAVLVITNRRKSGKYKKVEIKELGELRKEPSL

Molecule: CC[C@@]1(O)C(=O)OCc2c1cc1n(c2=O)Cc2c-1nc1cc(F)c(C)c3c1c2[C@@H](NC(=O)COCNC(=O)CNC(=O)[C@H](Cc1ccccc1)NC(=O)CNC(=O)CNC(=O)CCCCCN1C(=O)C=CC1=O)CC3 [GGFG-Dxd, reference compound] ({Hexanoyl(6-maleimido)}-GGFG[NHCH2OCH2CO]-Exatecan)
- speed of enzyme digestion (cathepsin B): slow speed of enzyme digestion

Molecule: CC[C@@]1(O)C(=O)OCc2c1cc1n(c2=O)Cc2c-1nc1cc(F)c(C)c3c1c2[C@@H](NC(=O)COCN(CCS(C)(=O)=O)C(=O)OCc1ccc(NC(=O)[C@H](C)NC(=O)[C@@H](NC(=O)CCCCCN2C(=O)C=CC2=O)C(C)C)cc1)CC3 [LE14]
- Percentage of drug release in the sample (cathepsin B; pH 5.0, 0 h): 13.82%
- Percentage of drug release in the sample (cathepsin B; pH 5.0, 1 h): 96.0%
- Percentage of drug release in the sample (cathepsin B; pH 5.0, 2 h): 98.35%
- Percentage of drug release in the sample (cathepsin B; pH 5.0, 3 h): 99.12%
- Percentage of drug release in the sample (cathepsin B; pH 5.0, 4 h): 99.21%
- Percentage of drug release in the sample (cathepsin B; pH 5.0, 5 h): 99.45%
- Percentage of drug release in the sample (cathepsin B; pH 5.0, 6 h): 98.23%
- Percentage of drug release in the sample (cathepsin B; pH 6.0, 0 h): 14.32%
- Percentage of drug release in the sample (cathepsin B; pH 6.0, 1 h): 96.12%
- Percentage of drug release in the sample (cathepsin B; pH 6.0, 2 h): 96.75%
- Percentage of drug release in the sample (cathepsin B; pH 6.0, 3 h): 98.52%
- Percentage of drug release in the sample (cathepsin B; pH 6.0, 4 h): 98.45%
- Percentage of drug release in the sample (cathepsin B; pH 6.0, 5 h): 98.92%
- Percentage of drug release in the sample (cathepsin B; pH 6.0, 6 h): 99.15%
- Percentage of drug release in the sample (cathepsin B; pH 7.0, 0 h): 16.59%
- Percentage of drug release in the sample (cathepsin B; pH 7.0, 1 h): 98.32%
- Percentage of drug release in the sample (cathepsin B; pH 7.0, 2 h): 98.45%
- Percentage of drug release in the sample (cathepsin B; pH 7.0, 3 h): 99.12%
- Percentage of drug release in the sample (cathepsin B; pH 7.0, 4 h): 99.12%
- Percentage of drug release in the sample (cathepsin B; pH 7.0, 5 h): 99.87%
- Percentage of drug release in the sample (cathepsin B; pH 7.0, 6 h): 99.47%
- speed of enzyme digestion (cathepsin B): quickly enzymatically digested

Molecule: CCc1c2c(nc3ccc(O)cc13)-c1cc3c(c(=O)n1C2)COC(=O)[C@]3(O)CC [SN-38, 7-ethyl-10-hydroxycamptothecin, reference compound]
- IC50 (NCI-N87 cell line; After Enzyme Digestion (cathepsin B, pH 5.0, 37° C., 4 hours)): 7.43 nM
- IC50 (NCI-N87 cell line; Before Enzyme Digestion): 7.18 nM

B1: FDA018-LE12 (antibody, human IgG1, kappa, V domains shown)
VH: QVQLQQSGSELKKPGASVKVSCKASGYTFTNYGMNWVKQAPGQGLKWMGWINTYTGEPTYTDDFKGRFAFSLDTSVSTAYLQISSLKADDTAVYFCARGGFGSSYWYFDVWGQGSLVTVSS
VL: DIQLTQSPSSLSASVGDRVSITCKASQDVSIAVAWYQQKPGKAPKLLIYSASYRYTGVPDRFSGSGSGTDFTLTISSLQPEDFAVYYCQQHYITPLTFGAGTKVEIKR
modifications: linker-drug LE12 (Dxd payload) coupled to cysteine sulfhydryl groups after reduction of the interchain disulfide bonds; DAR 3.90 for the whole antibody; sites not stated
- IC50 (nM), in vitro killing activity, BXPC3 Cell [1]: 0.68 nM
- IC50 (nM), in vitro killing activity, MDA-MB-468 Cell [1]: 1.03 nM
- IC50 (nM), in vitro killing activity, NCI-N87 Cell [1]: 1.12 nM

B2: FDA018-LE14 (antibody, human IgG1, kappa, V domains shown)
VH: B1 VH
VL: B1 VL
modifications: linker-drug LE14 coupled to cysteine sulfhydryl groups after reduction of the interchain disulfide bonds; DAR 4.00 for the whole antibody; sites not stated
- IC50 (nM), in vitro killing activity, BXPC3 Cell [1]: 0.5 nM
- IC50 (nM), in vitro killing activity, MDA-MB-468 Cell [1]: 0.8 nM
- IC50 (nM), in vitro killing activity, NCI-N87 Cell [1]: 1.08 nM

B3: FDA018-LE19 (antibody, human IgG1, kappa, V domains shown)
VH: B1 VH
VL: B1 VL
modifications: linker-drug LE19 coupled to cysteine sulfhydryl groups after reduction of the interchain disulfide bonds; DAR 4.13 for the whole antibody; sites not stated
- IC50 (nM), in vitro killing activity, MDA-MB-468 Cell [1]: 1.03 nM

B4: FDA018-LE20 (antibody, human IgG1, kappa, V domains shown)
VH: B1 VH
VL: B1 VL
modifications: linker-drug LE20 coupled to cysteine sulfhydryl groups after reduction of the interchain disulfide bonds; DAR 3.88 for the whole antibody; sites not stated
- IC50 (nM), in vitro killing activity, NCI-N87 Cell [1]: 1.15 nM

B5: FDA018-LE17 (antibody, human IgG1, kappa, V domains shown)
VH: B1 VH
VL: B1 VL
modifications: linker-drug LE17 coupled to cysteine sulfhydryl groups after reduction of the interchain disulfide bonds; DAR 3.98 for the whole antibody; sites not stated
- IC50 (nM), in vitro killing activity, BXPC3 Cell [1]: 0.62 nM
- IC50 (nM), in vitro killing activity, MDA-MB-468 Cell [1]: 0.82 nM
- IC50 (nM), in vitro killing activity, NCI-N87 Cell [1]: 1.12 nM

B6: FDA018-LS13 (antibody, human IgG1, kappa, V domains shown)
VH: B1 VH
VL: B1 VL
modifications: linker-drug LS13 (SN-38 payload) coupled to cysteine sulfhydryl groups after reduction of the interchain disulfide bonds; DAR 3.97 for the whole antibody; sites not stated
- IC50 (nM), in vitro killing activity, BXPC3 Cell [1]: 61.3 nM
- IC50 (nM), in vitro killing activity, MDA-MB-468 Cell [1]: 67.4 nM

B7: FDA018-LE22 (antibody, human IgG1, kappa, V domains shown)
VH: B1 VH
VL: B1 VL
modifications: linker-drug LE22 coupled to cysteine sulfhydryl groups after reduction of the interchain disulfide bonds; DAR 4.00 for the whole antibody; sites not stated
- IC50 (nM), in vitro killing activity, BXPC3 Cell [1]: 1.69 nM
- IC50 (nM), in vitro killing activity, NCI-N87 Cell [1]: 3.25 nM

B8: FDA018-LE13 (antibody, human IgG1, kappa, V domains shown)
VH: B1 VH
VL: B1 VL
modifications: linker-drug LE13 coupled to cysteine sulfhydryl groups after reduction of the interchain disulfide bonds; DAR 4.10 for the whole antibody; sites not stated
- IC50 (nM), in vitro killing activity, BXPC3 Cell [1]: 1.23 nM
- IC50 (nM), in vitro killing activity, MDA-MB-468 Cell [1]: 2 nM
- IC50 (nM), in vitro killing activity, NCI-N87 Cell [1]: 2.34 nM

B9: FDA018-LE15 (antibody, human IgG1, kappa, V domains shown)
VH: B1 VH
VL: B1 VL
modifications: linker-drug LE15 coupled to cysteine sulfhydryl groups after reduction of the interchain disulfide bonds; DAR 4.12 for the whole antibody; sites not stated
- IC50 (nM), in vitro killing activity, BXPC3 Cell [1]: 0.96 nM
- IC50 (nM), in vitro killing activity, MDA-MB-468 Cell [1]: 0.93 nM
- IC50 (nM), in vitro killing activity, NCI-N87 Cell [1]: 0.98 nM

B10: FDA018-LE18 (antibody, human IgG1, kappa, V domains shown)
VH: B1 VH
VL: B1 VL
modifications: linker-drug LE18 coupled to cysteine sulfhydryl groups after reduction of the interchain disulfide bonds; DAR 3.96 for the whole antibody; sites not stated
- IC50 (nM), in vitro killing activity, MDA-MB-468 Cell [1]: 0.86 nM

B11: FDA018-LE16 (antibody, human IgG1, kappa, V domains shown)
VH: B1 VH
VL: B1 VL
modifications: linker-drug LE16 coupled to cysteine sulfhydryl groups after reduction of the interchain disulfide bonds; DAR 4.03 for the whole antibody; sites not stated
- IC50 (nM), in vitro killing activity, BXPC3 Cell [1]: 1.58 nM
- IC50 (nM), in vitro killing activity, MDA-MB-468 Cell [1]: 1.64 nM
- IC50 (nM), in vitro killing activity, NCI-N87 Cell [1]: 1.35 nM

B12: FDA018-LE21 (antibody, human IgG1, kappa, V domains shown)
VH: B1 VH
VL: B1 VL
modifications: linker-drug LE21 coupled to cysteine sulfhydryl groups after reduction of the interchain disulfide bonds; DAR 4.05 for the whole antibody; sites not stated
- IC50 (nM), in vitro killing activity, BXPC3 Cell [1]: 1.23 nM
- IC50 (nM), in vitro killing activity, NCI-N87 Cell [1]: 1.23 nM

B13: FDA018-GGFG-Dxd (antibody, human IgG1, kappa, V domains shown)
VH: B1 VH
VL: B1 VL
modifications: linker-drug GGFG-Dxd coupled to cysteine sulfhydryl groups after reduction of the interchain disulfide bonds; DAR 4.03 for the whole antibody; sites not stated
- IC50 (nM), in vitro killing activity, BXPC3 Cell [1]: 0.61 nM
- IC50 (nM), in vitro killing activity, MDA-MB-468 Cell [1]: 1.2 nM
- IC50 (nM), in vitro killing activity, NCI-N87 Cell [1]: 1.1 nM
